Consider 23 molecules from publication PMC2191632 (The Journal of Experimental Medicine, 1994).

Where no end group is shown, it is not given here. Bounds are passed on as bounds.

Data set [1] addresses DRB1*0406 complex (Homo sapiens, UniProt P01903+P01911, A100R/A103E/A169T/F76Y/I96L/K127E/L162R/M171V/N62H/P40V/Q125Y/R42H/S133A/S149N/V209L/W38E). The format is binding.
Data set [2] addresses DRB1*0405 complex (HLA-DR4, DRA-DRB1*0405) (Homo sapiens, UniProt P01903+P01911, A100R/A169T/D86S/F76Y/I96L/K127E/L162R/M171V/N62H/P40V/Q125Y/R42H/S133A/S149N/S66Y/V115G/V209L/W38E). It is filed as binding.
Data set [3] deals with HLA-DR4 (DRA-DRB1*0406 complex) (human (endogenous in KT13)). The experiment in a line: radioligand binding.
A short description of data set [4]: Solubility of polyalanine-based peptide. The format is physicochemical. The settings on record: in words; lysine then inserted at NH2 terminus to increase solubility.
The target of data set [5] is HLA-DR4 (DRA-DRB1*0405 complex) (human (endogenous in EBWa)). The data set can be described thus: radioligand binding.

The IC50 is the point on the concentration scale where inhibition reaches its midpoint. Broadly, the Kd is the equilibrium constant for the complex coming apart. Higher therefore signals weaker binding.

As for AAYAALANAA, the IC50 was 5 µM in data set [1] and 1.4 µM in data set [2].

K-Ins beta p1-18 (…) (peptide) yielded a half-maximal inhibitory concentration (IC50) in data set [3] of more than 500 µM.

On to AAYAAVAVAA, for which, in data set [4], the Solubility result is on record as “not soluble”.

As for AALAAIASAA, the IC50 in data set [1] was determined as 8.8 µM; in data set [2], 11 µM.

With AAFAAMASAA, the values for the IC50 in data set [1] and in data set [2] were 1.1 µM and 3.6 µM, respectively.

KAAYAAVAVAA: the concentration for half-maximal inhibition (IC50) was 12.2 µM in data set [1] and 5.1 µM in data set [2].

With AAFAAMASAA, in data set [3], the 50% inhibitory concentration (IC50) was 1.1 µM.

In turn, KAAYAAVAVAA yielded an IC50 in data set [3] of 12.2 µM.

In data set [3], KSLYQLENYCN [K-Ins alpha p12-21 (…)] registered an IC50 of 12 µM.

The molecule KGIVEQCCTSI [K-Ins alpha p1-10 (…)] showed an IC50 in data set [3] of more than 500 µM.

Regarding SPGTGAYYVLLN [0405BP2 (…)], the percent inhibition of 125I-0405BP3 binding at 20 uM in data set [5] turned out to be 93%; in data set [3], 85%.

The molecule AAYAALANAA returned an IC50 in data set [3] of 5 µM.

In the case of NELSGEAHKDALGKLY [irrelevant peptide (…), unlabeled], the values for the percent inhibition of 125I-0405BP3 binding at 20 uM in data set [5] and in data set [3] were 1% and 2%, respectively.

Molecule KLVEALYLVCGERGFFYTPKT [K-Ins beta p11-30 (…)] gave a 50% inhibitory concentration (IC50) in data set [3] of 14.5 µM.

With SDPILYRPVAVALDTKGPE [PKM2p99-117 (…), unlabeled], the percent inhibition of 125I-0405BP3 binding at 20 uM amounted to 90% in data set [5] and 71% in data set [3].

Take GSTVFDNLPNPEIDGDYYGW [0405BP3 (…), unlabeled]: the Kd in data set [5] worked out at 0.07 µM. For the same molecule, the figures for the percent inhibition of 125I-0405BP3 binding at 20 uM in data set [5] and in data set [3] were 97% and 96%, respectively.

GPKPLFRRMSSLVGPTQSFF [CD20p26-45 (…)]: the results for the percent inhibition of 125I-0405BP3 binding at 20 uM in data set [5] and in data set [3] were 90% and 96%, respectively.

Consider VPIQRAVYQNVVVNN [0405BP1 (…), unlabeled], for which the figures for the percent inhibition of 125I-0405BP3 binding at 20 uM in data set [5] and in data set [3] were 103% and 70%, respectively.

For the molecule EGQLVSIHSPEEQDFLTKHA [CD23p195-214 (…)], the values for the percent inhibition of 125I-0405BP3 binding at 20 uM in data set [5] and in data set [3] were 59% and 63%, respectively.

As for GSTVFDNLPAPE [… with 10th N to A], in data set [5], the percent by which the substitution inhibited binding (against …) was 70%.

Molecule AAKAAKAGAA returned an IC50 in data set [3] of more than 500 µM.

In data set [3], AALAAIASAA registered a concentration for half-maximal inhibition (IC50) of 8.8 µM.

In data set [3], KKTSICSLYQLE [KK-Ins alpha p8-17 (…)] came in with an IC50 of 4.1 µM. Against the preceding molecule, the IC50 is about 2.1-fold lower.
